Data on two molecules can be found in article PMC7337490, “Molecular basis of MKLP2-dependent Aurora B transport from chromatin to the anaphase central spindle”.

What is called Kd is the free concentration of one partner at which half of the binding sites on the other are occupied at equilibrium, for simple one-to-one binding.

What all share (details): protein: recombinant;recombinant;recombinant; tags: N-terminal His (tag cleavage stated for complex);;His6-GST, cleaved by HRV 3C; copies: 1;1;1; label: Alexa 488 on forward strand; blunt
Series [1] deals with survivin;borealin 10-109;INCENP 1-80 (CPI80) (human;human;human, UniProt O15392;Q53HL2;Q9NQS7 1-142;10-109;1-80, ||). The experiment in a line: MST; 100 mM NaCl, 20 mM Tris-HCl pH 7.4, 1 mM DTT, 2 h on ice; MST 0.04 uM duplex, 0.1-200 uM protein; EMSA 0.15 pmol plasmid in 20 ul, 0.8% agarose. In general terms: In EMSA bound probe runs differently from free probe, usually more slowly.
Chain of survivin;borealin 10-109;INCENP 1-80 (CPI80) (O15392 whole entry, chain 1 of 3): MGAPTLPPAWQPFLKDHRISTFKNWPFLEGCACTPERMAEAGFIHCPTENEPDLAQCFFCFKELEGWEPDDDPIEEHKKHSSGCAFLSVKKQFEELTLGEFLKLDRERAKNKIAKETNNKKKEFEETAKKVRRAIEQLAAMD
Chain of survivin;borealin 10-109;INCENP 1-80 (CPI80) (Q53HL2 10-109, chain 2 of 3): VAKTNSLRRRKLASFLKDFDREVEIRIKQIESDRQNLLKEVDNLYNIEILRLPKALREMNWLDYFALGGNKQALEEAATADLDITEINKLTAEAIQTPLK
Chain of survivin;borealin 10-109;INCENP 1-80 (CPI80) (Q9NQS7 1-80, chain 3 of 3): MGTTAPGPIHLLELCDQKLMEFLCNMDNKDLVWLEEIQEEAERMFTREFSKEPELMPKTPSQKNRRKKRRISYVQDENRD

The target of series [2] is survivin;borealin 10-109;INCENP 1-80 RRKKRR (CPI80RRKKRR) (human;human;human, UniProt O15392;Q53HL2;Q9NQS7 1-142;10-109;1-80, ||R65A;R66A;K67A;K68A;R69A;R70A). The series is described as follows: MST; up to 200 uM; 100 mM NaCl, 20 mM Tris-HCl pH 7.4, 1 mM DTT, 2 h on ice; MST 0.04 uM duplex, 0.1-200 uM protein; EMSA 0.15 pmol plasmid in 20 ul, 0.8% agarose.
Chain of survivin;borealin 10-109;INCENP 1-80 RRKKRR (CPI80RRKKRR) (O15392 whole entry, chain 1 of 3): as the sequence (O15392 whole entry, chain 1 of 3) above
Chain of survivin;borealin 10-109;INCENP 1-80 RRKKRR (CPI80RRKKRR) (Q53HL2 10-109, stated change not applied, chain 2 of 3): as the sequence (Q53HL2 10-109, chain 2 of 3) above
Chain of survivin;borealin 10-109;INCENP 1-80 RRKKRR (CPI80RRKKRR) (Q9NQS7 1-80 R65A/R66A/K67A/K68A/R69A/R70A, chain 3 of 3): as the sequence (Q9NQS7 1-80, chain 3 of 3) above, with R65A, R66A, K67A, K68A, R69A, R70A counted along it
Series [3] addresses survivin;borealin 10-109;INCENP 1-58 (CPI58) (human;human;human, UniProt O15392;Q53HL2;Q9NQS7 1-142;10-109;1-58, ||). Described as above.
For series [4], the target named is survivin;borealin 10-109;INCENP 1-80 T59E (CPI80T59E) (human;human;human, UniProt O15392;Q53HL2;Q9NQS7 1-142;10-109;1-80, ||T59E). The series is described as follows: MST; Kd not calculable per legend; 100 mM NaCl, 20 mM Tris-HCl pH 7.4, 1 mM DTT, 2 h on ice; MST 0.04 uM duplex, 0.1-200 uM protein; EMSA 0.15 pmol plasmid in 20 ul, 0.8% agarose.
Chain of survivin;borealin 10-109;INCENP 1-80 T59E (CPI80T59E) (O15392 whole entry, chain 1 of 3): as the sequence (O15392 whole entry, chain 1 of 3) above
Chain of survivin;borealin 10-109;INCENP 1-80 T59E (CPI80T59E) (Q53HL2 10-109, chain 2 of 3): as the sequence (Q53HL2 10-109, chain 2 of 3) above
Chain of survivin;borealin 10-109;INCENP 1-80 T59E (CPI80T59E) (Q9NQS7 1-80 T59E, chain 3 of 3): as the sequence (Q9NQS7 1-80, chain 3 of 3) above, with T59E counted along it

Chain of survivin;borealin 10-109;INCENP 1-58 (CPI58) (O15392 whole entry, chain 1 of 3): as the sequence (O15392 whole entry, chain 1 of 3) above
Chain of survivin;borealin 10-109;INCENP 1-58 (CPI58) (Q53HL2 10-109, chain 2 of 3): as the sequence (Q53HL2 10-109, chain 2 of 3) above
Chain of survivin;borealin 10-109;INCENP 1-58 (CPI58) (Q9NQS7 1-58, chain 3 of 3): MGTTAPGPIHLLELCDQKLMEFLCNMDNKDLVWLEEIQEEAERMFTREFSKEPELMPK

B1: non-alpha-satellite 40 bp (dsDNA)
DNA 1: ATTCCATGGCACCGTCAAGGCTGAGAACGGGAAGCTTGTC
DNA 2: GACAAGCTTCCCGTTCTCAGCCTTGACGGTGCCATGGAAT
For B1, in series [1], the Kd turned out to be 29.7 ± 1.6 µM. The binding result in series [2] and in series [3] was “no binding” throughout. Also, in series [4], the binding signal was ~2 fold lower affinity than CPI80.

B2: centromeric alpha-satellite consensus 40 bp (dsDNA)
DNA 1: ATTCAACTCACAGAGTTGAACCTTCCTTTTCATAGAGCAG
DNA 2: CTGCTCTATGAAAAGGAAGGTTCAACTCTGTGAGTTGAAT
In the case of B2, the Kd in series [1] turned out to be 23.6 ± 1.6 µM. Further, the binding result in series [2] and in series [3] was “no binding” throughout. In addition, the binding signal in series [4] is ~2 fold lower affinity than CPI80.
